To fix the notation:
B1: OR4K15 (parent)
chain: GUUAACGGUCAUAGGCCAUGGAAACUAGGAGCACCAUUUCGCUGCCAGUGAAGAAAUGAACAAAGAAAAUCUGGGCCAGGCAGGCAUCAAAAGAAAUAGUCUUGCGCUCAACCAGAAAGUCUGUAAUCAUUUUAAGGGUA

Data on 167 variants can be found in the RNAGym collection of RNA variant scans (doi:10.7554/elife.90254).

In the data set the parent is B1. Briefly: self-cleavage, relative activity (ratio to wild type); higher = more cleavage; in vitro, sequencing; the parent is a self-cleaving ribozyme.
For U38A A90U, the self-cleavage worked out at 2.21. With C35A U43A the figure was 2.06. For the variant C34U A96C, the self-cleavage was determined as 0.19. The same measure for U38A A52U: 1.64; for A36U U70G: 1.53. Take A36G A86G: the self-cleavage came to 1.01. The same measure for A36G A86U: 2.91; for A36C A69C: 1.47; for U38A U87C: 1.56. For the variant A36U A78G, the self-cleavage amounted to 0.21.

For U37C A94U, the self-cleavage is 1.67.

For U38A A114G, the self-cleavage was 0.96. In the case of U37G A91G, the self-cleavage turned out to be 1.82.

On to A36G U72C, for which the self-cleavage stood at 0.14. For the variant C35G A59G, the self-cleavage was 1.58. With A36G A134U, the self-cleavage amounted to 1.6. On to U37C, for which the self-cleavage turned out to be 1.27. U37A: the self-cleavage is 1.27. Take U37G: the self-cleavage stood at 1.62. As to U37G A59G, the self-cleavage was determined as 0.71. In the case of U38A A64G, the self-cleavage is 1.37. For the variant U37C A86G, the self-cleavage was determined as 1.47. On to U37C A125G, for which the self-cleavage is 0.68. On to U37G G138A, for which the self-cleavage came to 1.23. On to A36G U108A, for which the self-cleavage worked out at 0.01.

With U37C A64G, the self-cleavage amounted to 1.54. As for C34A A89G, the self-cleavage worked out at 1.66.

On to C34A A89U, for which the self-cleavage came out at 1.63. As to C35U A134G, the self-cleavage was 1.23. As for A36G A111C, the self-cleavage turned out to be 0. For the variant A36G A111G, the self-cleavage is 0.03.

For A36C U127C, the self-cleavage was found to be 1.51. Turning to C34A U122C, the self-cleavage turned out to be 0.77.

Consider U37G A89G, for which the self-cleavage came out at 1.75. Turning to U37C A95U, the self-cleavage came to 1.73. As for U37C A96U, the self-cleavage amounted to 1.84.

For the variant U37C A96G, the self-cleavage came to 1.36.

Regarding U37C U43C, the self-cleavage came out at 2.16. The same measure for U37C U43G: 1.46. For the variant A36C U132C, the self-cleavage amounted to 1.67. With C35U A69G the figure was 1.1. U37C A60G: the self-cleavage worked out at 0.54. Turning to C35U U108A, the self-cleavage stood at 0.02. As to C34U C101A, the self-cleavage worked out at 0.21. With C34U G123A the figure was 1.87; with A36G A78G, 0.07; with U37C U87A, 1.49.

With C35A C61U, the self-cleavage stood at 1.59. For the variant U38A A67G, the self-cleavage was 0.89.

For U37C A111U, the self-cleavage amounted to 0.15. With U37C A111G, the self-cleavage came to 0.03.

Regarding U37C U57A, the self-cleavage amounted to 0.99. With U37C U57G the figure was 0.5. As for C35U U122C, the self-cleavage came to 1.07. With C35U U122A the figure was 1.26; with U37A A64G, 1.44. For the variant U38A A91G, the self-cleavage was found to be 1.4.

Regarding C34U A116G, the self-cleavage is 0.54.

In the case of U38A A140U, the self-cleavage came to 1.08. The same measure for U37C A91U: 2. Take U37C A91G: the self-cleavage was found to be 1.36. As to C34A U57C, the self-cleavage was 1.31.

For U37A A90G, the self-cleavage was 0.73. C34U A117G: the self-cleavage worked out at 1.91.

U38A A66G: the self-cleavage was determined as 1.31. As to U37G U131C, the self-cleavage was 1.37.

For U37G A111G, the self-cleavage came to 0.03. With C34U U43C the figure was 1.48.

Turning to C35U U38A, the self-cleavage amounted to 0.41. The same measure for U37G A68G: 1.5; for U37A U72C: 0.37. On to U37A A52G, for which the self-cleavage came to 2.37. With C34U A111G the figure was 0.04. With C34A A52G the figure was 1.28; with U37C A66G, 1.73; with U37C A66C, 1.34. Regarding U37C C61A, the self-cleavage came out at 0.78. In the case of A36U A52G, the self-cleavage amounted to 1.43. With U37C A118G the figure was 1.36. As for A36U A59G, the self-cleavage was determined as 1.26. With A36U A59U the figure was 1.33; with U37C A51G, 1.49. Consider U37C A51U, for which the self-cleavage stood at 1.83. With U38A A55G, the self-cleavage came out at 1. For the variant A36U G83A, the self-cleavage was 1.13. For A36C U49C, the self-cleavage was determined as 1.28. Consider C35U A51G, for which the self-cleavage was 1.06. On to A36U A55G, for which the self-cleavage was 1.4. Consider U37C A52U, for which the self-cleavage was determined as 0.57. With U37C A52G the figure was 1.4. On to C35U A94G, for which the self-cleavage worked out at 0.64.

With A36G A82G, the self-cleavage is 0.53.

As to A36G A82U, the self-cleavage was determined as 0.1. Take A36U A111G: the self-cleavage was found to be 0.02. Regarding C35U A118G, the self-cleavage is 0.99. Turning to U37A U38G, the self-cleavage worked out at 2.08. Regarding A36U A68G, the self-cleavage amounted to 1.62. The same measure for C34U U139A: 1.61; for A36C G104A: 0.03; for U37C U124C: 0.62.

With U37C U124A, the self-cleavage came out at 0.21. Consider U37C A114U, for which the self-cleavage turned out to be 0.15.

As to A36G A98C, the self-cleavage was 2.03.

Regarding C35U U131C, the self-cleavage amounted to 0.58. Take U37G A52G: the self-cleavage was found to be 1.48.

On to U37C A140G, for which the self-cleavage amounted to 1.24.

Regarding C34U A125G, the self-cleavage is 0.63.

Consider U38A U108C, for which the self-cleavage stood at 0.01.

Take A36C U130C: the self-cleavage was 2.1. For the variant C35U A91G, the self-cleavage turned out to be 1.19.

Turning to A36G G119C, the self-cleavage stood at 1.4. As for A36U U57C, the self-cleavage was found to be 1.58. For the variant A36U U49C, the self-cleavage is 2.04. As to A36U G106A, the self-cleavage was 0.02. For the variant A36U U87C, the self-cleavage was determined as 1.76. U37A A96G: the self-cleavage was determined as 2.31. On to U37A A96U, for which the self-cleavage was determined as 1.83. For U38A A62G, the self-cleavage is 1.19.

Turning to U38A U120C, the self-cleavage came to 1.12. With U38A U100C, the self-cleavage stood at 2.23. On to U37C C101U, for which the self-cleavage was determined as 0.78. With U37C C101A the figure was 0.22. Consider C35U U87C, for which the self-cleavage is 1. The same measure for A36C A111G: 0.02; for C35A A129G: 1.27; for U37C U70C: 0.2.

A36G A92U: the self-cleavage was 0.99. For C35U A62G, the self-cleavage worked out at 0.56. With U37G A62G, the self-cleavage amounted to 1.44.

A36C A78C: the self-cleavage came to 0.32. With A36U A69G the figure was 1.56. With C34U A69U the figure was 2.37; with U38A U43C, 1.3.

U38A U43A: the self-cleavage worked out at 1.61. Turning to C34U U87C, the self-cleavage worked out at 1.63. Take C35A A116G: the self-cleavage was 0.83. As for C35U U103C, the self-cleavage came out at 0.29. As for U37C G93U, the self-cleavage was determined as 1.07. A36G A118C: the self-cleavage is 1.46. A36G A118U: the self-cleavage was determined as 0.73. For A36G A118G, the self-cleavage was found to be 1.47. With A36U U43A the figure was 1.85. For the variant A36G C128A, the self-cleavage was 1.16. The same measure for U37C C105U: 0.15; for U37A A68G: 0.51; for A36U U38C: 1.51. For the variant U37G A60G, the self-cleavage was determined as 1.48. As to A36G C76U, the self-cleavage stood at 0.12. For A36C U131C, the self-cleavage turned out to be 1.1. As for A36G U57C, the self-cleavage was found to be 1.27. On to A36G U57G, for which the self-cleavage amounted to 0.68.

As to U37C U103G, the self-cleavage was determined as 0.02. On to U37C U103C, for which the self-cleavage worked out at 0.32. As for U37C U103A, the self-cleavage worked out at 0.5. A36C A126G: the self-cleavage is 1.17. In the case of U37C A59U, the self-cleavage came to 1.91. On to U37C A59C, for which the self-cleavage was determined as 1.08. Turning to A36U A91C, the self-cleavage was found to be 1.76. On to A36U A91G, for which the self-cleavage worked out at 1.42. Regarding C34U C105U, the self-cleavage amounted to 0.4. For C34U A52G, the self-cleavage worked out at 0.85. For A36U U124C, the self-cleavage was found to be 1.26. Turning to A36G G83U, the self-cleavage was 0.41. For A36G A96G, the self-cleavage amounted to 1.13. On to U37C U102A, for which the self-cleavage is 1.05. As for C35U A96G, the self-cleavage came to 0.88.

Consider U37C A47U, for which the self-cleavage worked out at 0.63.
